Data reported in US20120322725A1 (INDIANA UNIVERSITY RESEARCH AND TECHNOLOGY, published 2012).
Bridge positions count the residues as written; N and C are the ends. Square brackets hold non-standard residues; d marks the D form. Ends that are not written are not given here. * marks the point of attachment. Abu(4-SO3H) = N[C@@H](CCS(=O)(=O)O)C(=O)O; PhLac = O=C(O)[C@@H](O)Cc1ccccc1; Carboxymethyl = O=C(O)C*; NSG‑1 = not defined here; NSG‑2 = not defined here

B1: [desHis^1, desPhe^6, hCys^9(SO3^-), Phe^25, Leu^27]Glucagon-NH2 (peptide)
peptide: SQGTTSXYSKYLDSRRAQDFVQFLLNT
HELM: PEPTIDE1{S.Q.G.T.T.S.[O=C([C@H](CCS(=O)(=O)O)N[*:1])[*:2]].Y.S.K.Y.L.D.S.R.R.A.Q.D.F.V.Q.F.L.L.N.T.[am]}$$$$V2.0; N-terminus assumed
SMILES: CC(C)C[C@H](NC(=O)[C@H](Cc1ccc(O)cc1)NC(=O)[C@H](CCCCN)NC(=O)[C@H](CO)NC(=O)[C@H](Cc1ccc(O)cc1)NC(=O)[C@H](CCS(=O)(=O)O)NC(=O)[C@H](CO)NC(=O)[C@@H](NC(=O)[C@@H](NC(=O)CNC(=O)[C@H](CCC(N)=O)NC(=O)[C@@H](N)CO)[C@@H](C)O)[C@@H](C)O)C(=O)N[C@@H](CC(=O)O)C(=O)N[C@@H](CO)C(=O)N[C@@H](CCCNC(=N)N)C(=O)N[C@@H](CCCNC(=N)N)C(=O)N[C@@H](C)C(=O)N[C@@H](CCC(N)=O)C(=O)N[C@@H](CC(=O)O)C(=O)N[C@@H](Cc1ccccc1)C(=O)N[C@H](C(=O)N[C@@H](CCC(N)=O)C(=O)N[C@@H](Cc1ccccc1)C(=O)N[C@@H](CC(C)C)C(=O)N[C@@H](CC(C)C)C(=O)N[C@@H](CC(N)=O)C(=O)N[C@H](C(N)=O)[C@@H](C)O)C(C)C
notes: also called Cmpd
B2: [PLA6, D9]Glucagon(aa6-29)-NH2 (peptide)
peptide: XTSDYSKYLDSRRAQDFVQWLMNT
HELM: PEPTIDE1{[O=C([C@@H](O)Cc1ccccc1)[*:2]].T.S.D.Y.S.K.Y.L.D.S.R.R.A.Q.D.F.V.Q.W.L.M.N.T.[am]}$$$$V2.0; N-terminus assumed
SMILES: CSCC[C@H](NC(=O)[C@H](CC(C)C)NC(=O)[C@H](Cc1c[nH]c2ccccc12)NC(=O)[C@H](CCC(N)=O)NC(=O)[C@@H](NC(=O)[C@H](Cc1ccccc1)NC(=O)[C@H](CC(=O)O)NC(=O)[C@H](CCC(N)=O)NC(=O)[C@H](C)NC(=O)[C@H](CCCNC(=N)N)NC(=O)[C@H](CCCNC(=N)N)NC(=O)[C@H](CO)NC(=O)[C@H](CC(=O)O)NC(=O)[C@H](CC(C)C)NC(=O)[C@H](Cc1ccc(O)cc1)NC(=O)[C@H](CCCCN)NC(=O)[C@H](CO)NC(=O)[C@H](Cc1ccc(O)cc1)NC(=O)[C@H](CC(=O)O)NC(=O)[C@H](CO)NC(=O)[C@@H](NC(=O)[C@@H](O)Cc1ccccc1)[C@@H](C)O)C(C)C)C(=O)N[C@@H](CC(N)=O)C(=O)N[C@H](C(N)=O)[C@@H](C)O
B3: [PLA6, D9]Glucagon(aa6-29)-COOH (peptide)
peptide: XTSDYSKYLDSRRAQDFVQWLMNT
HELM: PEPTIDE1{[O=C([C@@H](O)Cc1ccccc1)[*:2]].T.S.D.Y.S.K.Y.L.D.S.R.R.A.Q.D.F.V.Q.W.L.M.N.T}$$$$V2.0; N-terminus assumed
SMILES: CSCC[C@H](NC(=O)[C@H](CC(C)C)NC(=O)[C@H](Cc1c[nH]c2ccccc12)NC(=O)[C@H](CCC(N)=O)NC(=O)[C@@H](NC(=O)[C@H](Cc1ccccc1)NC(=O)[C@H](CC(=O)O)NC(=O)[C@H](CCC(N)=O)NC(=O)[C@H](C)NC(=O)[C@H](CCCNC(=N)N)NC(=O)[C@H](CCCNC(=N)N)NC(=O)[C@H](CO)NC(=O)[C@H](CC(=O)O)NC(=O)[C@H](CC(C)C)NC(=O)[C@H](Cc1ccc(O)cc1)NC(=O)[C@H](CCCCN)NC(=O)[C@H](CO)NC(=O)[C@H](Cc1ccc(O)cc1)NC(=O)[C@H](CC(=O)O)NC(=O)[C@H](CO)NC(=O)[C@@H](NC(=O)[C@@H](O)Cc1ccccc1)[C@@H](C)O)C(C)C)C(=O)N[C@@H](CC(N)=O)C(=O)N[C@H](C(=O)O)[C@@H](C)O
B4: [(CSA-1)^9]Glucagon(aa2-29)-NH2 (peptide)
peptide: SQGTFTSC(Carboxymethyl)YSKYLDSRRAQDFVQWLMNT-NH2
modifications: N-terminus assumed
SMILES: CSCC[C@H](NC(=O)[C@H](CC(C)C)NC(=O)[C@H](Cc1c[nH]c2ccccc12)NC(=O)[C@H](CCC(N)=O)NC(=O)[C@@H](NC(=O)[C@H](Cc1ccccc1)NC(=O)[C@H](CC(=O)O)NC(=O)[C@H](CCC(N)=O)NC(=O)[C@H](C)NC(=O)[C@H](CCCNC(=N)N)NC(=O)[C@H](CCCNC(=N)N)NC(=O)[C@H](CO)NC(=O)[C@H](CC(=O)O)NC(=O)[C@H](CC(C)C)NC(=O)[C@H](Cc1ccc(O)cc1)NC(=O)[C@H](CCCCN)NC(=O)[C@H](CO)NC(=O)[C@H](Cc1ccc(O)cc1)NC(=O)[C@H](CSCC(=O)O)NC(=O)[C@H](CO)NC(=O)[C@@H](NC(=O)[C@H](Cc1ccccc1)NC(=O)[C@@H](NC(=O)CNC(=O)[C@H](CCC(N)=O)NC(=O)[C@@H](N)CO)[C@@H](C)O)[C@@H](C)O)C(C)C)C(=O)N[C@@H](CC(N)=O)C(=O)N[C@H](C(N)=O)[C@@H](C)O
notes: also called peptide no
B5: [(CSA-2)^9]Glucagon(aa2-29)-NH2 (peptide)
peptide: SQGTFTSCYSKYLDSRRAQDFVQWLMNT
HELM: PEPTIDE1{S.Q.G.T.F.T.S.[O=C(O)CCSC[C@H](N[*:1])C(=O)[*:2]].Y.S.K.Y.L.D.S.R.R.A.Q.D.F.V.Q.W.L.M.N.T.[am]}$$$$V2.0; N-terminus assumed
SMILES: CSCC[C@H](NC(=O)[C@H](CC(C)C)NC(=O)[C@H](Cc1c[nH]c2ccccc12)NC(=O)[C@H](CCC(N)=O)NC(=O)[C@@H](NC(=O)[C@H](Cc1ccccc1)NC(=O)[C@H](CC(=O)O)NC(=O)[C@H](CCC(N)=O)NC(=O)[C@H](C)NC(=O)[C@H](CCCNC(=N)N)NC(=O)[C@H](CCCNC(=N)N)NC(=O)[C@H](CO)NC(=O)[C@H](CC(=O)O)NC(=O)[C@H](CC(C)C)NC(=O)[C@H](Cc1ccc(O)cc1)NC(=O)[C@H](CCCCN)NC(=O)[C@H](CO)NC(=O)[C@H](Cc1ccc(O)cc1)NC(=O)[C@H](CSCCC(=O)O)NC(=O)[C@H](CO)NC(=O)[C@@H](NC(=O)[C@H](Cc1ccccc1)NC(=O)[C@@H](NC(=O)CNC(=O)[C@H](CCC(N)=O)NC(=O)[C@@H](N)CO)[C@@H](C)O)[C@@H](C)O)C(C)C)C(=O)N[C@@H](CC(N)=O)C(=O)N[C@H](C(N)=O)[C@@H](C)O
notes: also called peptide no

Assays:
glucagon receptor [1] = target: T1, glucagon receptor (UniProt P47871 26-477, limits assumed); assay: assay not named in Table F; taken as receptor binding
T1 construct: whole, on cells; also called GR; Glucagon

glucagon receptor [2] = target: T1, glucagon receptor; assay: receptor binding, method not described
glucagon receptor [3] = target: T1, glucagon receptor; assay: cell-based or functional assay
glucagon receptor [4] = target: T1, glucagon receptor; assay: cell-based or functional assay; remark: listed apart in the source
glucagon receptor [5] = target: T1, glucagon receptor; assay: receptor binding, method not described; remark: listed apart in the source
glucagon receptor [6] = target: T1, glucagon receptor; assay: cell-based or functional assay; remark: listed apart in the source
glucagon receptor [7] = target: T1, glucagon receptor; assay: cell-based or functional assay; remark: listed apart in the source
glucagon receptor [8] = target: T1, glucagon receptor; assay: column IC50(nM) beside the cAMP columns of Table H; taken as receptor binding

T1 sequence (P47871 26-477 limits assumed): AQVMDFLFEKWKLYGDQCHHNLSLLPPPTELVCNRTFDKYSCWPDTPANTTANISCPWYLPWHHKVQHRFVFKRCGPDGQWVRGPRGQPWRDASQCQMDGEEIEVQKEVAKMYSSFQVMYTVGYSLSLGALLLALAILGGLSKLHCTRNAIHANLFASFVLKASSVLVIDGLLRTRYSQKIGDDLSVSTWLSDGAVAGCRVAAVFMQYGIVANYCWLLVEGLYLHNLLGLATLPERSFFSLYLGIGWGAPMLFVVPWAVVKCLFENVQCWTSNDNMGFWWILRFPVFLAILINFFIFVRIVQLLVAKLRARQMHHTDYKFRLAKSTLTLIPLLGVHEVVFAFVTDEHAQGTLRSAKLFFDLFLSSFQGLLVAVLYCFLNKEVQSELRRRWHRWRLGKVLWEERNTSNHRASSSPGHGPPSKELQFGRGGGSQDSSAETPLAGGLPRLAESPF

Binder	IC50 (glucagon receptor [1])	IC50 (glucagon receptor [5])	IC50(nM) (cAMP, inhibit Glucagon) 0.1 nM or 0.2 nM (glucagon receptor [6])	also measured
SQGTFTSXYSKYLDSRRAQDFVQWLMNT (homoglutamic acid at position 9; C-terminal amide, also called peptide no) [[hGlu^9]Glucagon(aa2-29)-NH2]	8.1 nM	–	–	–
B1	–	–	–	IC50 (glucagon receptor [2]): 53.3 nM; cAMP Induction EC50 (glucagon receptor [3]): 3210 nM; cAMP Inhibition IC50 (glucagon receptor [3]): 9220 nM
AEGTFTSEYSKYLDERRAKDFVQWLMDT (lactam 15-19) [[A2E3, E16K20(Lactam),D28]G(2~29)]	–	–	–	Glucagon IC50 (glucagon receptor [4]): 63 nM
XTSDYSKYLDSRRAQDFVQWLMDT (PLA at position 6, N-terminal to residues 7-29; C-terminal amide) [[PLA6, D9, D28]Glucagon(aa6-29)-NH2]	–	9 nM	1.32 nM	–
B2	–	13.8 nM	6.9 nM	–
B3	–	15.5 nM	13.2 nM	–
[PhLac]TS[Abu(4-SO3H)]YSKYLDSRRAQDFVQWLMNT-NH2 [[PLA6, hCys(SO3)9]Glucagon(aa6-29)-NH2]	–	14.2 nM	40.2 nM	–
SQGTFTS[NSG‑1]YSKYLDSRRAQDFVQWLMNT-NH2 (reading uncertain, also called peptide no) [[(NSG-1)^9]Glucagon(aa2-29)-NH2]	983 nM	–	–	–
SQGTFTS[Abu(4-SO3H)]YSKYLDSRRAQDFVQWLMNT-NH2 [[hCys^9(SO3H)]Glucagon(aa2-29)-NH2]	–	–	–	cAMP IC50 (glucagon receptor [7]): 147 nM; IC50 (glucagon receptor [8]): 13.2 nM
B4	12.7 nM	–	–	–
B5	13.3 nM	–	–	–
SQGTFTS[NSG‑2]YSKYLDSRRAQDFVQWLMNT-NH2 (reading uncertain, also called peptide no) [[(NSG-2)^9]Glucagon(aa2-29)-NH2]	2350 nM	–	–	–
